The subject of series [1] is HeLa Kyoto. Nature of the series: solubility in G1/S (NP-40 vs SDS abundance) (log2 ratio); higher = more soluble. To be noted: cell cycle stage: G1/S.
For series [2], the system named is HeLa Kyoto. Nature of the series: thermal stability score vs G1/S (z-score of summed log2 fold changes over temperatures); higher = more thermally stable than in G1/S.
The subject of series [3] is HeLa Kyoto. Nature of the series: solubility change mitosis vs G1/S (difference of NP-40 vs SDS log2 ratios) (log2 ratio difference); higher = more soluble in mitosis.
Series [4] concerns HeLa Kyoto. Nature of the series: melting temperature (median over replicates), in situ; higher = more thermally stable.
Where [5] appears, read: cell cycle stage: early G1 (4.5 h after nocodazole release).
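Throughout, for melting temperature (median over replicates), in situ: HeLa Kyoto cells synchronized by double thymidine or nocodazole block, proteins quantified by TMT10plex mass spectrometry, three independent biological replicates.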
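Throughout, for solubility change mitosis vs G1/S (difference of NP-40 vs SDS log2 ratios): synchronized HeLa Kyoto cells (double thymidine block for G1/S, nocodazole release for mitosis), protein amounts in NP-40 versus SDS lysates quantified by mass spectrometry, three biological replicates.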
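Throughout, for solubility in G1/S (NP-40 vs SDS abundance): HeLa Kyoto cells arrested at G1/S by double thymidine block, proteins quantified by TMT10plex mass spectrometry in mild NP-40 versus SDS extracts, three biological replicates.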
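Throughout, for thermal stability score vs G1/S (z-score of summed log2 fold changes over temperatures): synchronized HeLa Kyoto cells, proteins quantified by TMT10plex mass spectrometry, three biological replicates, mitosis taken 0.5 h after nocodazole release, G1/S directly after double thymidine block.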

For the sequence “MAAATGDPGLSKLQFAPFSSALDVGFWHELTQKKLNEYRLDEAPKDIKGYYYNGDSAGLPARLTLEFSAFDMSAPTPARCCPAIGTLYNTNTLESFKTADKKLLLEQAANEIWESIKSGTALENPVLLNKFLLLTFADLKKYHFYYWFCYPALCLPESLPLIQGPVGLDQRFSLKQIEALECAYDNLCQTEGVTALPYFLIKYDENMVLVSLLKHYSDFFQGQRTKITIGVYDPCNLAQYPGWPLRNFLVLAAHRWSSSFQSVEVVCFRDRTMQGARDVAHSIIFEVKLPEMAFSPDCPKAVGWEKNQKGGMGPRMVNLSECMDPKRLAESSVDLNLKLMCWRLVPTLDLDKVVSVKCLLLGAGTLGCNVARTLMGWGVRHITFVDNAKISYSNPVRQPLYEFEDCLGGGKPKALAAADRLQKIFPGVNARGFNMSIPMPGHPVNFSSVTLEQARRDVEQLEQLIESHDVVFLLMDTRESRWLPAVIAASKRKLVINAALGFDTFVVMRHGLKKPKQQGAGDLCPNHPVASADLLGSSLFANIPGYKLGCYFCNDVVAPGDSTRDRTLDQQCTVSRPGLAVIAGALAVELMVSVLQHPEGGYAIASSSDDRMNEPPTSLGLVPHQIRGFLSRFDNVLPVSLAFDKCTACSSKVLDQYEREGFNFLAKVFNSSHSFLEDLTGLTLLHQETQAAEIWDMSDDETI [ATG7]”, in series [1], the “solubility in G1/S (log2)” value is -0.177. Moreover, the thermal stability score in series [2] (setting [5]) is -0.14; in series [2] (cell cycle stage: mitosis), 0.0236. Besides, the “solubility change mitosis (log2)” value in series [3] is -0.0691. Besides, the melting temperature in series [4] (cell cycle stage: G1/S) was 51.3 °C; in series [4] (cell cycle stage: mitosis) it was 51.5 °C.

As for “MAAATGPSFWLGNETLKVPLALFALNRQRLCERLRKNPAVQAGSIVVLQGGEETQRYCTDTGVLFRQESFFHWAFGVTEPGCYGVIDVDTGKSTLFVPRLPASHATWMGKIHSKEHFKEKYAVDDVQYVDEIASVLTSQKPSVLLTLRGVNTDSGSVCREASFDGISKFEVNNTILHPEIVECRVFKTDMELEVLRYTNKISSEAHREVMKAVKVGMKEYELESLFEHYCYSRGGMRHSSYTCICGSGENSAVLHYGHAGAPNDRTIQNGDMCLFDMGGEYYCFASDITCSFPANGKFTADQKAVYEAVLRSSRAVMGAMKPGVWWPDMHRLADRIHLEELAHMGILSGSVDAMVQAHLGAVFMPHGLGHFLGIDVHDVGGYPEGVERIDEPGLRSLRTARHLQPGMVLTVEPGIYFIDHLLDEALADPARASFLNREVLQRFRGFGGVRIEEDVVVTDSGIELLTCVPRTVEEIEACMAGCDKAFTPFSGPK [PEPD]”, the “solubility in G1/S (log2)” value in series [1] is -0.0689. The thermal stability score is -1.19 in series [2] (setting [5]) and -2.41 in series [2] (cell cycle stage: mitosis). Further, in series [3], the “solubility change mitosis (log2)” value is -0.184. The results for the melting temperature in series [4] (cell cycle stage: G1/S) and in series [4] (cell cycle stage: mitosis) were 54.1 °C and 53.8 °C, respectively.

For “MAAAVGRLLRASVARHVSAIPWGISATAALRPAACGRTSLTNLLCSGSSQAKLFSTSSSCHAPAVTQHAPYFKGTAVVNGEFKDLSLDDFKGKYLVLFFYPLDFTFVCPTEIVAFSDKANEFHDVNCEVVAVSVDSHFSHLAWINTPRKNGGLGHMNIALLSDLTKQISRDYGVLLEGSGLALRGLFIIDPNGVIKHLSVNDLPVGRSVEETLRLVKAFQYVETHGEVCPANWTPDSPTIKPSPAASKEYFQKVNQ [PRDX3]”, the “solubility in G1/S (log2)” value in series [1] is 0.452. Also, the thermal stability score in series [2] (setting [5]) was 0.801; in series [2] (cell cycle stage: mitosis), -1.38. The “solubility change mitosis (log2)” value in series [3] is -0.00401. Also, the results for the melting temperature in series [4] (cell cycle stage: G1/S) and in series [4] (cell cycle stage: mitosis) were 58.2 °C and 57.9 °C, respectively.

Take “MAAAVGVRGRYELPPCSGPGWLLSLSALLSVAARGAFATTHWVVTEDGKIQQQVDSPMNLKHPHDLVILMRQEATVNYLKELEKQLVAQKIHIEENEDRDTGLEQRHNKEDPDCIKAKVPLGDLDLYDGTYITLESKDISPEDYIDTESPVPPDPEQPDCTKILELPYSIHAFQHLRGVQERVNLSAPLLPKEDPIFTYLSKRLGRSIDDIGHLIHEGLQKNTSSWVLYNMASFYWRIKNEPYQVVECAMRALHFSSRHNKDIALVNLANVLHRAHFSADAAVVVHAALDDSDFFTSYYTLGNIYAMLGEYNHSVLCYDHALQARPGFEQAIKRKHAVLCQQKLEQKLEAQHRSLQRTLNELKEYQKQHDHYLRQQEILEKHKLIQEEQILRNIIHETQMAKEAQLGNHQICRLVNQQHSLHCQWDQPVRYHRGDIFENVDYVQFGEDSSTSSMMSVNFDVQSNQSDINDSVKSSPVAHSILWIWGRDSDAYRDKQHILWPKRADCTESYPRVPVGGELPTYFLPPENKGLRIHELSSDDYSTEEEAQTPDCSITDFRKSHTLSYLVKELEVRMDLKAKMPDDHARKILLSRINNYTIPEEEIGSFLFHAINKPNAPIWLILNEAGLYWRAVGNSTFAIACLQRALNLAPLQYQDVPLVNLANLLIHYGLHLDATKLLLQALAINSSEPLTFLSLGNAYLALKNISGALEAFRQALKLTTKCPECENSLKLIRCMQFYPFLYNITSSVCSGTVVEESNGSDEMENSDETKMSEEILALVDEFQQAWPLEGFGGALEMKGRRLDLQGIRVLKKGPQDGVARSSCYGDCRSEDDEATEWITFQVKRVKKPKGDHKKTPGKKVETGQIENGHRYQANLEITGPKVASPGPQGKKRDYQRLGWPSPDECLKLRWVELTAIVSTWLAVSSKNIDITEHIDFATPIQQPAMEPLCNGNLPTSMHTLDHLHGVSNRASLHYTGESQLTEVLQNLGKDQYPQQSLEQIGTRIAKVLEKNQTSWVLSSMAALYWRVKGQGKKAIDCLRQALHYAPHQMKDVPLISLANILHNAKLWNDAVIVATMAVEIAPHFAVNHFTLGNVYVAMEEFEKALVWYESTLKLQPEFVPAKNRIQTIQCHLMLKKGRRSP [TTC17]”: the “solubility in G1/S (log2)” value in series [1] worked out at 0.107. Besides, the thermal stability score was determined as 2.32 in series [2] (setting [5]) and 2.24 in series [2] (cell cycle stage: mitosis). In addition, in series [3], the “solubility change mitosis (log2)” value was found to be 0.0442. Moreover, the melting temperature was 54.8 °C in series [4] (cell cycle stage: G1/S) and 56.8 °C in series [4] (cell cycle stage: mitosis).

For the sequence “MAAAVPQRAWTVEQLRSEQLPKKDIIKFLQEHGSDSFLAEHKLLGNIKNVAKTANKDHLVTAYNHLFETKRFKGTESISKVSEQVKNVKLNEDKPKETKSEETLDEGPPKYTKSVLKKGDKTNFPKKGDVVHCWYTGTLQDGTVFDTNIQTSAKKKKNAKPLSFKVGVGKVIRGWDEALLTMSKGEKARLEIEPEWAYGKKGQPDAKIPPNAKLTFEVELVDID [FKBP3]”, in series [1], the “solubility in G1/S (log2)” value was determined as 0.57. Besides, the thermal stability score is 0.0401 in series [2] (setting [5]) and -2.71 in series [2] (cell cycle stage: mitosis). Besides, the “solubility change mitosis (log2)” value in series [3] was 0.226. Also, the values for the melting temperature in series [4] (cell cycle stage: G1/S) and in series [4] (cell cycle stage: mitosis) were 54.2 °C and 54.4 °C, respectively.

The record behind these values is the supplement of paper PMC5998384.
